Biological target: djb11_human DNAJB11 (UniProt Q9UBS4)
Sequence (Q9UBS4 whole entry): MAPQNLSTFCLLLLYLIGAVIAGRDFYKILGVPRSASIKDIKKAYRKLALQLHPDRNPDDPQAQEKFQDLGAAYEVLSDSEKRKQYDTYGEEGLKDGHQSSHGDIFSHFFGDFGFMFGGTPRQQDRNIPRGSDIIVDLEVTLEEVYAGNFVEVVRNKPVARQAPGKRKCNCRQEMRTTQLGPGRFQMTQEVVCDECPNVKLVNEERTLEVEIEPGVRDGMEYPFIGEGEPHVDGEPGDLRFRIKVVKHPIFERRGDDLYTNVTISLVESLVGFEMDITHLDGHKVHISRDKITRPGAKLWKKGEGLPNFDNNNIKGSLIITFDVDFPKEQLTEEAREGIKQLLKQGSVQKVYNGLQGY

Endoplasmic reticulum chaperone BiP (Mesocricetus auratus (Golden hamster)), P07823 R197E
effect of a mutation on the interaction: disrupting interaction
